Measurements reported in patent publication US20180017550.

Assays:
[1] = test system: Human casein kinase II (CK), cell-free expressed with C-terminal HSV epitope tag and polyhistidine tag
[2] = target: human MDM2 (ubiquitin-protein ligase E3 MDM2), cell-free expressed with C-terminal HSV epitope tag and polyhistidine tag (UniProt Q00987)
[3] = target: human p53 oncoprotein (cellular tumor antigen p53), cell-free expressed from pETBlue-2 with C-terminal HSV epitope tag and polyhistidine tag (UniProt P04637)
[4] = target: human protein kinase A catalytic subunit alpha, cell-free expressed with C-terminal HSV epitope tag and polyhistidine tag (UniProt P17612)

human recombinant Src pp60 tyrosine kinase (Invitrogen Corporation)
phosphorylation of photo-transferred protein on microarray, anti-phosphotyrosine (RC20) detection [1]: significant phosphorylation of CK and PKA | phosphorylation of photo-transferred protein on microarray, anti-phosphotyrosine (RC20) detection [2]: Both kinases heavily phosphorylate the MDM protein | phosphorylation of photo-transferred protein on microarray, anti-phosphotyrosine (RC20) detection [3]: p53 is not phosphorylated by either kinase | phosphorylation of photo-transferred protein on microarray, anti-phosphotyrosine (RC20) detection [4]: significant phosphorylation of CK and PKA
